According to US20060281090A1 (University of Washington, published 2006):

Legend:
[1] = molecular target: recombinant human coagulation factor IX (human) (UniProt P00740); assay: cell-based or functional assay
[2] = molecular target: T1, recombinant human coagulation factor IX (human, UniProt P00740 47-461); assay: SPR, FIX immobilized on the sensor, knob in solution
T1 construct: also called FIX; human FIX
T1 sequence (P00740 47-461 limits assumed): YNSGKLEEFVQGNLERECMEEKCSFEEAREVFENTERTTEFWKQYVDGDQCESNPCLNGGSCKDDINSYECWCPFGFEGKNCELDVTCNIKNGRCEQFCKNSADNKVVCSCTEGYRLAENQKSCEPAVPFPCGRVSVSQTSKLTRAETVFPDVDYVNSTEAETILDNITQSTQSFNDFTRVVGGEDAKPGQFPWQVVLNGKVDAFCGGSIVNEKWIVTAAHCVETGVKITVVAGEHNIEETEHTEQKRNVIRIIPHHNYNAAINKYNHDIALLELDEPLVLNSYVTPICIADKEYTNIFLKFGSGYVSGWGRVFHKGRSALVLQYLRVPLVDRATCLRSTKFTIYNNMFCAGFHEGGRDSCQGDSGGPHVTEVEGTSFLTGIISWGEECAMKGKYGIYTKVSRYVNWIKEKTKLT

Chain of recombinant human coagulation factor IX (human) (P00740 47-461 limits assumed): as above

Ad5/35L virus (Ad5 capsid, long Ad5 fiber shaft, Ad35 fiber knob domain) (from UniProt P11818 1-399)
reporter gene activities in HSPG-expressing CHO-K1 cells infected with FIX compared to infection without FIX [1]: > 45 fold

Ad5F* virus (long-shafted Ad5-based vector, fiber knob aa 477 Y to A, C-terminal 6-His) (from UniProt P11818 1-581)
reporter gene activities in HSPG-expressing CHO-K1 cells infected with FIX compared to infection without FIX [1]: > 45 fold | transduction of primary human hepatocytes (luciferase activity) with FIX compared to without [1]: > 14 fold

B1: purified recombinant Ad35 fiber knob domain (other)
chain: SINTLWTGINPPPNCQIVENTNTNDGKLTLVLVKNGGLVNGYVSLVGVSDTVNQMFTQKTANIQLRLYFDSSGNLLTEESDLKIPLKNKSSTATSETVASSKAFMPSTTAYPFNTTTRDSENYIHGICYYMTSYDRSLFPLNISIMLNSRMISSNVAYAIQFEWNLNASESPESNIATLTTSPFFFSYITEDDN
notes: also called Ad35 knob; biotin-conjugated Ad35 fiber knob domain
binding result [2]: binds

B2: purified recombinant Ad5 fiber knob domain (other)
chain: DKLTLWTTPAPSPNCRLNAEKDAKLTLVLTKCGSQILATVSVLAVKGSLAPISGTVQSAHLIIRFDENGVLLNNSFLDPEYWNFRNGDLTEGTAYTNAVGFMPNLSAYPKSHGKTAKSNIVSQVYLNGDKTKPVTLTITLNGTQETGDTTPSAYSMSFSWDWSGHNYINEIFATSSYTFSYIAQE
notes: also called Ad5 knob
binding result [2]: binds
